Measurements taken from article PMC3582033 (Cell, 2011).

Tested on: HP1γ binding to H3 peptide containing K9me3 as the sole modification
Assay: TRIM33 competition with HP1γ for H3 peptide, K9me3 only
Settings: 3-fold molar excess of TRIM33

B1: TRIM33: Flag-tagged TRIM33 protein (protein)
chain: MAENKGGGEAESGGGGSGSAPVTAGAAGPTAQEAEPPLAAVLVEEEEEEGGRAGAEGGAAGPDDGGVAAASSSSAPAASVPAASVGSAVPGGAASTPAPAAAPAPAPAPAPAPAPAPAPAPAPGSSSGPPLGPPASLLDTCAVCQQSLQSRREAEPKLLPCLHSFCLRCLPEPERQLSVPIPGGSNGDVQQVGVIRCPVCRQECRQIDLVDNYFVKDTSEAPSSSDEKSEQVCTSCEDNASAVGFCVECGEWLCKTCIEAHQRVKFTKDHLIRKKEDVSESVGTSGQRPVFCPVHKQEQLKLFCETCDRLTCRDCQLLEHKEHRYQFLEEAFQNQKGAIENLLAKLLEKKNYVHFAATQVQNRIKEVNETNKRVEQEIKVAIFTLINEINKKGKSLLQQLENVTKERQMKLLQQQNDITGLSRQVKHVMNFTNWAIASGSSTALLYSKRLITFQLRHILKARCDPVPAANGAIRFHCDPTFWAKNVVNLGNLVIESKPAPGYTPNVVVGQVPPGTNHISKTPGQINLAQLRLQHMQQQVYAQKHQQLQQMRLQQPPAPIPTTTATTQQHPRQAAPQMLQQQPPRLISVQTMQRGNMNCGAFQAHQMRLAQNAARIPGIPRHSAPQYSMMQPHLQRQHSNPGHAGPFPVVSAHNPINPTSPTTATMANANRGPTSPSVTAIELIPSVTNPENLPSLPDIPPIQLEDAGSSSLDNLLSRYISGSHLPPQPTSTMNPSPGPSALSPGSSGLSNSHTPVRPPSTSSTGSRGSCGSSGRTAEKSAHSFKSDQVKVKQEPGTEEEICSFSGAVKQEKTEDGRRSACMLSSPESSLTPPLSTNLHLESELDTLTGLENHVKTEPTDISESCKQSGLSNLVNGKSPIRNLMHRSARIGGDGNSKDDDPNEDWCAVCQNGGDLLCCEKCPKVFHLTCHVPTLLSFPSGDWICTFCRDIGKPEVEYDCDNMQHSKKGKTAQGLSPVDQRKCERLLLYLYCHELSIEFQEPVPVSIPNYYKIIKKPMDLSTVKKKLQKKHSQHYQIPDDFVADVRLIFKNCERFNEMMKVVQVYADTQEINLKGDSEVAKAGKAVALYFEDKLSEIYSDRTFTPLPEFEQDEDDGEVTEDSDEDFIQPRRKRLKSDERPVHIK
- competition with HP1γ: ineffective at competing with HP1γ
